Experimental data published in article PMC11161652, “ASXLs binding to the PHD2/3 fingers of MLL4 provides a mechanism for the recruitment of BAP1 to active enhancers” (Nature Communications, 2024).

What was measured:
MLL4_(PHD2/3) E292K [1] = biological target: MLL4_(PHD2/3) E292K (human, UniProt O14686 227-324, E292K)
MLL3_(PHD2/3) D400K = biological target: T1, MLL3_(PHD2/3) D400K (human, UniProt Q8NEZ4 342-439, D400K); assay: not stated; fluorescence spectroscopy or NMR: the legends of Fig. 3c and Fig. 4b say that values marked (a) are from NMR and the others from fluorescence; the text does not tell which for these pairs; settings: both partners purified
T1 construct: human MLL3 (KMT2C), aa 342-439; source: E. coli BL21-CodonPlus, purified as WT
T1 sequence (looked up): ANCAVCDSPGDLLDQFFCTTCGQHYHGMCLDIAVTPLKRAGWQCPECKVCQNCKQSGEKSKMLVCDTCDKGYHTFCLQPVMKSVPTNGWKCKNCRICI

[2] = biological target: T2, PHD2 and PHD3 fingers of human MLL3 (aa 342-439) (human, UniProt Q8NEZ4 342-439); assay: other fluorescence titration; tryptophan fluorescence, 25 °C; 1.0 µM MLL4 PHD2/3 or MLL3 PHD2/3 with increasing peptide; excitation 295 nm; 20 mM Tris pH 7.2, 150 mM NaCl, 1 mM TCEP, 0.02% Tween20; average of three measurements; settings: both partners purified
T2 construct: PHD2 and PHD3 fingers of human MLL3 (KMT2C), aa 342-439; 15N-labelled for NMR titrations; also used unlabelled as the titrant against MLL3 PHD4; also called MLL3_(PHD2/3); MLL3 PHD2/3; source: E. coli BL21-CodonPlus, purified (glutathione agarose, PreScission cleavage; unlabeled proteins also SEC)
T2 sequence (looked up): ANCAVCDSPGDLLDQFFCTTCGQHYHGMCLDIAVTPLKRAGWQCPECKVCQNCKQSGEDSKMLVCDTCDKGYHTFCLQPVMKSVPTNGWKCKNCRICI

MLL4_(PHD2/3) D257K = biological target: T3, MLL4_(PHD2/3) D257K (human, UniProt O14686 227-324, D257K); assay: as above; settings: both partners purified
T3 construct: human MLL4 (KMT2D), aa 227-324; source: E. coli BL21-CodonPlus, purified as WT
T3 sequence (looked up): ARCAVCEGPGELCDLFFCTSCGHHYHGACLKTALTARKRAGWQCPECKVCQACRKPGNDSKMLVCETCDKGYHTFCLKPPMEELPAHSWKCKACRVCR

MLL4_(PHD2/3) E272K = biological target: T4, MLL4_(PHD2/3) E272K (human, UniProt O14686 227-324, E272K); assay: as above; settings: both partners purified
T4 construct: human MLL4 (KMT2D), aa 227-324; E272K is said to be found in cancers (Cosmic); source: E. coli BL21-CodonPlus, purified as WT
T4 sequence (looked up): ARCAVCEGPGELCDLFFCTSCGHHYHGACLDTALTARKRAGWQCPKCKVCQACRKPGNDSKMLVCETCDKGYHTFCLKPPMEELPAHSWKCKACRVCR

MLL4_(PHD2/3) E292K [3] = biological target: T5, MLL4_(PHD2/3) E292K (human, UniProt O14686 227-324, E292K); assay: as above; settings: both partners purified
T5 construct: human MLL4 (KMT2D), aa 227-324; E292K is said to be found in cancers (Cosmic); source: E. coli BL21-CodonPlus, purified as WT
T5 sequence (looked up): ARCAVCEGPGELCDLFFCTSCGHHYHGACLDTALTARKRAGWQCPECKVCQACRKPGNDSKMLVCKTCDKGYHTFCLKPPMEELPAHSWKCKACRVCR

MLL4_(PHD2/3) S286A = biological target: T6, MLL4_(PHD2/3) S286A (human, UniProt O14686 227-324, S286A); assay: as above; settings: both partners purified
T6 construct: human MLL4 (KMT2D), aa 227-324; source: E. coli BL21-CodonPlus, purified as WT
T6 sequence (looked up): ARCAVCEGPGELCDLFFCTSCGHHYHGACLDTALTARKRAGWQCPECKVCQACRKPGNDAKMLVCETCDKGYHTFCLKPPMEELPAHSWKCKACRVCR

MLL4_(PHD2/3) S314A = biological target: T7, MLL4_(PHD2/3) S314A (human, UniProt O14686 227-324, S314A); assay: as above; settings: both partners purified
T7 construct: human MLL4 (KMT2D), aa 227-324; source: E. coli BL21-CodonPlus, purified as WT
T7 sequence (looked up): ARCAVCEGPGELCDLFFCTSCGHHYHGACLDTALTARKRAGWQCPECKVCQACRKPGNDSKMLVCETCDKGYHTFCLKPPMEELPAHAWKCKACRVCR

[4] = biological target: T8, PHD2 and PHD3 fingers of human MLL4 (aa 227-324) (human, UniProt O14686 227-324); assay: as above; settings: both partners purified
T8 construct: PHD2 and PHD3 fingers of human MLL4 (KMT2D), aa 227-324; also called MLL4_(PHD2/3); MLL4 PHD2/3; source: E. coli BL21-CodonPlus, purified (glutathione agarose, PreScission cleavage; unlabeled proteins also SEC)
T8 sequence (looked up): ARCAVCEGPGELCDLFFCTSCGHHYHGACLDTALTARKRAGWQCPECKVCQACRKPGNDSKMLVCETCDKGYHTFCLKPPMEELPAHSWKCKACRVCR

B1: ASXL2 peptide (residues 650-670 of ASXL2) (peptide, UniProt Q76L83 650-670, looked up)
peptide: NRTGARTLADIKAKAQLVKAQ
notes: also called ASXL2 (aa 650-670); MBH of ASXL2; source: synthetic peptide (SynPeptide)
MLL4_(PHD2/3) E292K [1]
  Kd: 10 µM
MLL3_(PHD2/3) D400K
  fold reduction in binding against wild type MLL3_(PHD2/3): 400 fold
[2]
  Kd: 1.4 µM
MLL4_(PHD2/3) D257K
  Kd: 27 µM
MLL4_(PHD2/3) E272K
  Kd: 28 µM
MLL4_(PHD2/3) E292K [3]
  fold reduction in binding against wild type MLL4_(PHD2/3): ~14 fold
MLL4_(PHD2/3) S286A
  Kd: 0.8 µM
MLL4_(PHD2/3) S314A
  Kd: 0.8 µM
[4]
  Kd: 0.7 µM
